B1: chimeric 3G8 antibody (ch3G8VH/ch3G8VL) (antibody, V domains shown)
VH: QVTLKESGPGILQPSQTLSLTCSFSGFSLRTSGMGVGWIRQPSGKGLEWLAHIWWDDDKRYNPALKSRLTISKDTSSNQVFLKIASVDTADTATYYCAQINPAWFAYWGQGTLVTVSS
VL: DTVLTQSPASLAVSLGQRATISCKASQSVDFDGDSFMNWYQQKPGQPPKLLIYTTSNLESGIPARFSASGSGTDFTLNIHPVEEEDTATYYCQQSNEDPYTFGGGTKLEIK
notes: Mouse 3G8 variable domains (VH FR4 ala to ser) on human Cγ1 and Cκ constant regions; also called ch3G8-γ1
B2: hu3G8VH-44/hu3G8VL-1 (antibody)
VH: QITLKESGPTLVKPTQTLTLTCTFSGFSLSTSGVGVGWIRQPPGKALEWLAHIWWDDDKRYSPSLKSRLTITKDTSKNQVVLTMTNMDPVDTATYYCAHINPAYFDYWGQGTLVTVSS
light: DIVMTQSPDSLAVSLGERATINCKASQSVDFDGDSFMNWYQQKPGQPPKLLIYTTSNLESGVPDRFSGSGSGTDFTLTISSLQAEDVAVYYCQQSNEDPYTFGQGTKLEIKRTVAAPSVFIFPPSDEQLKSGTASVVCLLNNFYPREAKVQWKVDNALQSGNSQESVTEQDSKDSTYSLSSTLTLSKADYEKHKVYACEVTHQGLSSPVTKSFNRGEC
notes: VH fused to human Cγ1 constant region
B3: hu3G8VH-22/hu3G8VL-1 (antibody)
VH: QVTLRESGPALVKPTQTLTLTCTFSGFSLSTSGVGVGWIRQPPGKALEWLAHIWWDDDKRYSPSLKSRLTISKDTSKNQVVLTMTNMDPVDTATYYCARINPAYFAYWGQGTLVTVS
light: DIVMTQSPDSLAVSLGERATINCKASQSVDFDGDSFMNWYQQKPGQPPKLLIYTTSNLESGVPDRFSGSGSGTDFTLTISSLQAEDVAVYYCQQSNEDPYTFGQGTKLEIKRTVAAPSVFIFPPSDEQLKSGTASVVCLLNNFYPREAKVQWKVDNALQSGNSQESVTEQDSKDSTYSLSSTLTLSKADYEKHKVYACEVTHQGLSSPVTKSFNRGEC
notes: VH fused to human Cγ1 constant region (glycosylated form)
B4: hu3G8VH-45/hu3G8VL-1 (antibody)
VH: QITLKESGPTLVKPTQTLTLTCTFSGFSLSTSGVGVGWIRQPPGKALEWLAHIWWDDDKRYSPSLKSRLTITKDTSKNQVVLTMTNMDPVDTATYYCAQINPAYFDYWGQGTLVTVSS
light: DIVMTQSPDSLAVSLGERATINCKASQSVDFDGDSFMNWYQQKPGQPPKLLIYTTSNLESGVPDRFSGSGSGTDFTLTISSLQAEDVAVYYCQQSNEDPYTFGQGTKLEIKRTVAAPSVFIFPPSDEQLKSGTASVVCLLNNFYPREAKVQWKVDNALQSGNSQESVTEQDSKDSTYSLSSTLTLSKADYEKHKVYACEVTHQGLSSPVTKSFNRGEC
notes: as for B2

T1 sequence (P08637 other isoform, or with tags, fused parts or gaps limits assumed): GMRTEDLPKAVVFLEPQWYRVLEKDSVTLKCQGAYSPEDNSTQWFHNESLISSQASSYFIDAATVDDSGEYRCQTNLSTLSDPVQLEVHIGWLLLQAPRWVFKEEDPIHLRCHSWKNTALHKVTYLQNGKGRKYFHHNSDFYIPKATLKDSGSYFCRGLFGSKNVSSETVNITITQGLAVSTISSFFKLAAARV

This assay has as its target T1, soluble human CD16A (sCD16A) (human, UniProt P08637 17-203).
T1 construct: CD16A truncated just prior to the transmembrane region, expressed in HEK-293; The last seven residues come from vector pCDNA3.1; also called soluble form of human CD16A
The assay is described as follows: ELISA, captured sCD16A. As for the experimental part:
The plate was washed and dilutions of recombinant antibodies starting at 0.5 μg/ml in PBS-T-BSA were then added and incubated for 1 hr at room temp. Binding of recombinant antibodies to the captured sCD16A was then measured using an anti-human IgG-HRP conjugate and TMB substrate. After stopping color development using dilute sulfuric acid, the plate was read at 450 nm.
In the case of B1, the binding result was “binds”. For B2 the value was “binds”; for B3, “binds”. For B4 the value was “binds”.

The values are drawn from patent publication US20070036786A1 (published 2007).
